Results taken from patent US6376217.

Target: T1, human CD5 cell differentiation marker (human, UniProt P06127 25-495)
T1 sequence: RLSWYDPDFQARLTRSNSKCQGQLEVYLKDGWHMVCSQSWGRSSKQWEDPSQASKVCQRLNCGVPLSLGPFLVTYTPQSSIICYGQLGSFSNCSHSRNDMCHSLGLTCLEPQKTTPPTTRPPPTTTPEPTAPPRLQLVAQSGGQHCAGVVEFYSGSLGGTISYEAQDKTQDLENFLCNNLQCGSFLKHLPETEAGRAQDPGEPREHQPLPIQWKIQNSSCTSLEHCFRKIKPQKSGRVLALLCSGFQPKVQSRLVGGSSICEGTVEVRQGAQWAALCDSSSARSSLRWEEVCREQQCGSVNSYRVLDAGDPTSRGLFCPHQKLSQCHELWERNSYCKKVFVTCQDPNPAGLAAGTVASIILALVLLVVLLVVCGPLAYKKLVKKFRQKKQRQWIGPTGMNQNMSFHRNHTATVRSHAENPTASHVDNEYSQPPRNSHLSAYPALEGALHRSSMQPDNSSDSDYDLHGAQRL
Experiment: cell-based or functional assay

B1: he3Fab-rGelA50(C44) (other)
heavy: EIQLVQSGGGLVKPGGSVRISCAASGYTFTNYGMNWVRQAPGKGLEWMGWINTHTGEPTYADSFKGRFTFSLDDSKNTAYLQINSLRAEDTAVYFCTRRGYDWYFDVWGQGTTVTVSS
light: DIQMTQSPSSLSASVGDRVTITCRASQDINSYLSWFQQKPGKAPKTLIYRANRLESGVPSRFSGSGSGTDYTLTISSLQYEDFGIYYCQQYDESPWTFGGGTKLEIK
chain: GLDTVSFSTKGATYITYVNFLNELRVKLKPEGNSHGIPLLRKKCDDPGKAFVLVALSNDNGQLAEIAIDVTSVYVVGYQVRNRSYFFKDAPDAAYEGLFKNTIKTRLHFGGSYPSLEGEKAYRETTDLGIEPLRIGIKKLDENAIDNYKPTEIASSLLVVIQMVSEAARFTFIENQIRNNFQQRIRPANNTISLENKWGKLSFQIRTSGANGMFSEAVELERANGKKYYVTAVDQVKPKIALLKFVDKDPK
IC50 (pMT), whole cell cytotoxicity, CEM Cells: 173 pMT
